Measured values as given in patent publication US20100093076A1, “SOLUBLE IL-27 RECEPTOR” (priority 2006, published 2010).

Tests used:
Type in all cases: cell-based
muIL-27 [1] = molecular target: T1, muIL-27 (Mus musculus, UniProt O35228+Q8K3I6); assay: Phospho-STAT3 (BIO-PLEX) neutralization of IL-27 by soluble receptors, total human PBMCs; conditions: ligand muIL-27 at EC90 (2 nM)
T1 construct: purchased R&D Systems
T1 sequence (Q8K3I6 29-234): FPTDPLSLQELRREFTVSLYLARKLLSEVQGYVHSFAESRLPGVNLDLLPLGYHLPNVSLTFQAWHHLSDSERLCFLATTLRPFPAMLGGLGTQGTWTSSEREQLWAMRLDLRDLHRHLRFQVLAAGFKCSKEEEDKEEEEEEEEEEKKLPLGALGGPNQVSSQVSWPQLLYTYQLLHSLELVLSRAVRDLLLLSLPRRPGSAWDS
T1 sequence (O35228 19-228): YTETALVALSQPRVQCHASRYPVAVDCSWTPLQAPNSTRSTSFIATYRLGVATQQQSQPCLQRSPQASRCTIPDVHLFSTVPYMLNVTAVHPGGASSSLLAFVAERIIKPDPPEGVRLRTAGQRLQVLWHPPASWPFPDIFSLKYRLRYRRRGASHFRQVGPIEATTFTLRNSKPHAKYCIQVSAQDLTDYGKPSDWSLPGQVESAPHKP
Excerpt: (§1) Whole mouse spleens were harvested from C57 B1/6 mice and washed two times with 1×PBS before being plated out at 2×10^5 cells/well in assay media (RPMI 1640 plus 10% fetal bovine serum) in 96-well, round-bottom tissue culture plates. Total human PBMC (peripheral blood mononuclear cells) were thawed from a frozen vial collected from a leukapherisis donation and washed two times with 1×PBS before being plated out at 10^6 cells/well in assay media in 96-well, round-bottom tissue culture plates. […] Following pre-incubation, treatments were added to the plates containing the cells and incubated together at 37° C. for 15 minutes.
(§2) Following incubation, cells were washed with ice-cold wash buffer (BIO-PLEX Cell Lysis Kit, BIO-RAD Laboratories, Hercules, Calif.) and put on ice to stop the reaction according to manufacturer's instructions. […]
(§3) Capture beads (BIO-PLEX Phospho-Stat3 Assay, BIO-RAD Laboratories) were combined with 50 μL of 1:1 diluted lysates and added to a 96-well filter plate according to manufacture's instructions (BIO-PLEX Phosphoprotein Detection Kit, BIO-RAD Laboratories). […] After the final wash, beads were resuspended in 125 μL/well of bead suspension buffer, shaken for 30 seconds, and read on an array reader (BIO-PLEX, BIO-RAD Laboratories) according to the manufacture's instructions. Data were analyzed using analytical software (BIO-PLEX MANAGER 3.0, BIO-RAD Laboratories). […]

huIL-27 [2] = molecular target: T2, huIL-27 (Homo sapiens, UniProt Q14213+Q8NEV9); assay: as above; conditions: ligand huIL-27 at EC90 (2 nM)
T2 construct: purchased R&D Systems
T2 sequence (Q8NEV9 29-243): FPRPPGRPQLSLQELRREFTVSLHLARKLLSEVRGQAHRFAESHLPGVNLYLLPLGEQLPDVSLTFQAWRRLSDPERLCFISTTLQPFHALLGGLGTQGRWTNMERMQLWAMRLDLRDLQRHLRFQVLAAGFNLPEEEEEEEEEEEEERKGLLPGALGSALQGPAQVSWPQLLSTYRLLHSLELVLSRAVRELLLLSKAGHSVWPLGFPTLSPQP
T2 sequence (Q14213 21-229): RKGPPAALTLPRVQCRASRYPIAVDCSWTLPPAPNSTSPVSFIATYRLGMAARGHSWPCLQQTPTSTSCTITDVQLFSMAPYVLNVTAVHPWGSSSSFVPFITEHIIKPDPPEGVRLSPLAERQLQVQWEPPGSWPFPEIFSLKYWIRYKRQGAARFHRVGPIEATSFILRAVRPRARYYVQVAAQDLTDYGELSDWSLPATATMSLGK
Excerpt: as §1, §2, §3

muIL-27 [3] = molecular target: T1, muIL-27; assay: Phospho-STAT3 (BIO-PLEX) neutralization of IL-27 by soluble receptors, mouse spleens; conditions: ligand muIL-27 at EC90 (0.2 nM)
Excerpt: as §1, §2, §3

huIL-27 [4] = molecular target: T2, huIL-27; assay: as above; conditions: ligand huIL-27 at EC90 (2 nM)
Excerpt: as §1, §2, §3

B1: IL-27RAm(mFc1): Extracellular domain of mouse IL27RA fused to a wild type BALB/c mouse gamma2a constant region Fc tag (protein)
chain: MNRLERVALARLETPRLEGLLELELESLEMSLELELEGTRPRHGSPRGPRLEQCYSVGPRLEGILENCSWGLPRLEGDLEGLTPRPRVLEYHQSQKYHPRNRVWGLVKVPRSKQSWVTIPRRGLQFTMADKLELEIWGTQKGRPRLEWSSVSVASNLEGLTQMKPRDTPRQIFSQVASPISGLGLATLEGLATVQWAPRPRVWPRPRQKALETCQFRYKGLCQAGLAWTRLEGLPRQLEKTDGLETPRVGLMQNLEGLPRGTCYQVSGRCQVGLNGYPRWGGLWSSPRLESFQTPRFLEDPRGLDVWVSGTVCGLTSGKRAALELEVWKDPRRPRCVQVTYTVWFGAGDITTTQGLGLVPRCCKSPRVPRAWMGLWAVVSPRGNSTSWVPRPRTNLESLEVCLEAPRGLSAPRCDVGVSSADGSPRGIKVTWKQGTARGSPRLEGLYVVASPWAQDGDSLEDKLENWTRLEPRPRGNLESTLELEPRGGLFKGGVPRYRITVTAVYSGGLEAAAPRSVWGFRGLGLLEVPRLEAGPRAVWRLEPRDDPRPRGTPRVVALAWGGLVPRRHQLERGQATHYTFCIQSRGLESTVCRNVSSQTQTATLEPRNLEHSGSFKLEWVTVSTVALAGQGPRPRGPRDLESLEHLEPRDNRIRWKALEPRWFLESLEWGLELELEMGCGLESLEASTRCLEQARCLEHWRHKLELEPRQWIWGLRVPRDPRANSNSGQPRYIKGLVSLEPRQPRPRKDGPRILEGLVGLGLVGLLEQPRVVGLSPRKASAPRIYSGYGLKHFLEPRTPRGLGLLEGLELEV
modifications: left off: a dimerising Fc or GST
notes: Extracellular domain of mouse IL27RA fused to a wild type BALB/c mouse gamma2a constant region Fc tag
Q: For B1, which IC50 (muIL-27 [1]) is on record?
A: 4.83 nM

Q: What about the IC50 (huIL-27 [2]) of the same molecule?
A: 1370 nM

Q: What about the IC50 (muIL-27 [3]) of the same molecule?
A: 0.18 nM

Q: What about the IC50 (huIL-27 [4]) of the same molecule?
A: 9.3 nM
